Results reported in article PMC9352680, “A comprehensive thermodynamic model for RNA binding by the Saccharomyces cerevisiae Pumilio protein PUF4”.

T1: PUF4 RNA-binding domain (Saccharomyces cerevisiae, UniProt P25339 537-888)
T1 sequence: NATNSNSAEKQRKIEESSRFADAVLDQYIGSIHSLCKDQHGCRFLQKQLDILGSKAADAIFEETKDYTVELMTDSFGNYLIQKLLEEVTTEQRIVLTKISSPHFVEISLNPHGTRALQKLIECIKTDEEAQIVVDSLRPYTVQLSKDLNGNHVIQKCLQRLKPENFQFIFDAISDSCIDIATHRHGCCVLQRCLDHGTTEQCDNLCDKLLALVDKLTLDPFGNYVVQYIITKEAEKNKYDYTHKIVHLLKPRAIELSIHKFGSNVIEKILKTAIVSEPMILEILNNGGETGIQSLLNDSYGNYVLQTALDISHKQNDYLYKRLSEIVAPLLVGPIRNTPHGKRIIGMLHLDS


Target: T1, PUF4 RNA-binding domain
Test: Mg; RNA-MaP; 20 mM Na-HEPES pH 7.4, 30 mM KOAc, 0.75 mM MgCl2, 0.1% Tween-20, 5% glycerol, 0.1 mg/mL BSA, 2 mM DTT; 25 C; 0.0125-409.6 nM protein
Details: tags: N-His6-TEV cleaved; C-SNAP kept, Cy3B-labelled; label: tethered on chip by stalled RNA polymerase

Binder | Kd
UCUCUUUCUGUAUAUUAUCUCUU (ssRNA) [Ie_S1_P4E.1_K4.1_C4.1_H4.1_[+1CT]_A4.1_F4.1_T4.1] | 0.72 nM
UCUCUUUUCUGUAUAUUAUCUCUU (ssRNA) [Ie_S1_P4E.1_K4.1_C4.1_H4.1_[+1TCT]_A4.1_F4.1_T4.1] | 0.546 nM
UCUCUUUCUUGUAUAUUAUCUCUU (ssRNA) [Ie_S1_P4E.1_K4.1_C4.1_H4.1_[+1CTT]_A4.1_F4.1_T4.1] | 0.599 nM
UCUCUUUUCGUAUAUUAUCUCUU (ssRNA) [Ie_S1_P4E.1_K4.1_C4.1_H4.1_[+1TC]_A4.1_F4.1_T4.1] | 24.4 nM
UCUCUUUUCUCUGUAUAUUAUCUCUU (ssRNA) [Ie_S1_P4E.1_K4.1_C4.1_H4.1_[+1TCTCT]_A4.1_F4.1_T4.1] | 0.586 nM
UCUCUUUCCCUUGUAUAUUAUCUCUU (ssRNA) [Ie_S1_P4E.1_K4.1_C4.1_H4.1_[+1CCCTT]_A4.1_F4.1_T4.1] | 0.454 nM
UCUCUUCUUGUAUAUACUCUCUAUCUCUU (ssRNA) [Ie_S1_P3E.2_K3.1_C3.2_H3.1_A3.1_F3.1_[+8CTCTC]_T3.2] | 11.7 nM
UCUCUUUCCUGUAUAUUAUCUCUU (ssRNA) [Ie_S1_P4E.1_K4.1_C4.1_H4.1_[+1CCT]_A4.1_F4.1_T4.1] | 0.583 nM
UCUCUUUGUAUAGUUAUCUCUU (ssRNA) [Ib_S1_P5E.1_K5.1_C5.1_H5.1_A5.1_[T6A]_[A7G]_F5.1_T5.1] | 7.36 nM
UCUCUUUCCCUGUAUAUUAUCUCUU (ssRNA) [Ie_S1_P4E.1_K4.1_C4.1_H4.1_[+1CCCT]_A4.1_F4.1_T4.1] | 1.2 nM
UCUCUUUUUCCGUAUAUUAUCUCUU (ssRNA) [Ie_S1_P4E.1_K4.1_C4.1_H4.1_[+1TTCC]_A4.1_F4.1_T4.1] | 36.3 nM
UCUCUUUUUCCUGUAUAUUAUCUCUU (ssRNA) [Ie_S1_P4E.1_K4.1_C4.1_H4.1_[+1TTCCT]_A4.1_F4.1_T4.1] | 1.18 nM
UCUCUUUGCUAUAUUAUCUCUU (ssRNA) [Ie_S1_P4E.1_K4.1_C4.1_H4.1_[+2C]_A4.1_F4.1_T4.1] | 107 nM
UCUCUUUCCCGUAUAUUAUCUCUU (ssRNA) [Ie_S1_P4E.1_K4.1_C4.1_H4.1_[+1CCC]_A4.1_F4.1_T4.1] | 22.1 nM
UCUCUUUUCUCGUAUAUUAUCUCUU (ssRNA) [Ie_S1_P4E.1_K4.1_C4.1_H4.1_[+1TCTC]_A4.1_F4.1_T4.1] | 19.7 nM
UCUCUUCUUGUAUAUAUUCCUUAUCUCUU (ssRNA) [Ie_S1_P3E.2_K3.1_C3.2_H3.1_A3.1_F3.1_[+8TTCCT]_T3.2] | 6.43 nM
UCUCUUUGCCUAUAUUAUCUCUU (ssRNA) [Ie_S1_P4E.1_K4.1_C4.1_H4.1_[+2CC]_A4.1_F4.1_T4.1] | 1390 nM
UCUCUUUCUCUCGUAUAUUAUCUCUU (ssRNA) [Ie_S1_P4E.1_K4.1_C4.1_H4.1_[+1CTCTC]_A4.1_F4.1_T4.1] | 27.9 nM
UCUCUUCUUGUAUAUACCCUUUAUCUCUU (ssRNA) [Ie_S1_P3E.2_K3.1_C3.2_H3.1_A3.1_F3.1_[+8CCCTT]_T3.2] | 9.52 nM
UCUCUUUUUCGUAUAUUAUCUCUU (ssRNA) [Ie_S1_P4E.1_K4.1_C4.1_H4.1_[+1TTC]_A4.1_F4.1_T4.1] | 20.9 nM
UCUCUUUUGUAUAUUAUCUCUU (ssRNA) [Ie_S1_P4E.1_K4.1_C4.1_H4.1_[+1T]_A4.1_F4.1_T4.1] | 0.567 nM
UCUCUUUGUAUACUUAUCUCUU (ssRNA) [Ie_S1_P4E.1_K4.1_C4.1_H4.1_A4.1_[+6C]_F4.1_T4.1] | 4.35 nM
UCUCUUUCCUCUGUAUAUUAUCUCUU (ssRNA) [Ie_S1_P4E.1_K4.1_C4.1_H4.1_[+1CCTCT]_A4.1_F4.1_T4.1] | 0.539 nM
UCUCUUUCUCUGUAUAUUAUCUCUU (ssRNA) [Ie_S1_P4E.1_K4.1_C4.1_H4.1_[+1CTCT]_A4.1_F4.1_T4.1] | 0.881 nM
UCUCUUUUUGUAUAUUAUCUCUU (ssRNA) [Ie_S1_P4E.1_K4.1_C4.1_H4.1_[+1TT]_A4.1_F4.1_T4.1] | 0.914 nM
UCUCUUCUUGUAUAUAUCUCUUAUCUCUU (ssRNA) [Ie_S1_P3E.2_K3.1_C3.2_H3.1_A3.1_F3.1_[+8TCTCT]_T3.2] | 8.49 nM
UCUCUUUGUAUAUUUAUCUCUU (ssRNA) [Ie_S1_P4E.1_K4.1_C4.1_H4.1_A4.1_F4.1_[+8T]_T4.1] | 2.39 nM
